Sequences and labels used below:
B1: RASAL2 (protein, UniProt Q9UJF2 1-1139, looked up)
Ras GTPase-activating protein …: MQTPEVPAERSPRRRSISGTSTSEKPNSMDTANTSPFKVPGFFSKRLKGSIKRTKSQSKLDRNTSFRLPSLRSTDDRSRGLPKLKESRSHESLLSPCSTVECLDLGRGEPVSVKPLHSSILGQDFCFEVTYLSGSKCFSCNSASERDKWMENLRRTVQPNKDNCRRAENVLRLWIIEAKDLAPKKKYFCELCLDDTLFARTTSKTKADNIFWGEHFEFFSLPPLHSITVHIYKDVEKKKKKDKNNYVGLVNIPTASVTGRQFVEKWYPVSTPTPNKGKTGGPSIRIKSRFQTITILPMEQYKEFAEFVTSNYTMLCSVLEPVISVRNKEELACALVHILQSTGRAKDFLTDLVMSEVDRCGEHDVLIFRENTIATKSIEEYLKLVGQQYLHDALGEFIKALYESDENCEVDPSKCSSSELIDHQSNLKMCCELAFCKIINSYCVFPRELKEVFASWKQQCLNRGKQDISERLISASLFLRFLCPAIMSPSLFNLMQEYPDDRTSRTLTLIAKVIQNLANFAKFGNKEEYMAFMNDFLEHEWGGMKRFLLEISNPDTISNTPGFDGYIDLGRELSVLHSLLWEVVSQLDKGENSFLQATVAKLGPLPRVLADITKSLTNPTPIQQQLRRFTEHNSSPNVSGSLSSGLQKIFEDPTDSDLHKLKSPSQDNTDSYFRGKTLLLVQQASSQSMTYSEKDERESSLPNGRSVSLMDLQDTHAAQVEHASVMLDVPIRLTGSQLSITQVASIKQLRETQSTPQSAPQVRRPLHPALNQPGGLQPLSFQNPVYHLNNPIPAMPKASIDSSLENLSTASSRSQSNSEDFKLSGPSNSSMEDFTKRSTQSEDFSRRHTVPDRHIPLALPRQNSTGQAQIRKVDQGGLGARAKAPPSLPHSASLRSTGSMSVVSAALVAEPVQNGSRSRQQSSSSRESPVPKVRAIQRQQTQQVQSPVDSATMSPVERTAAWVLNNGQYEEDVEETEQNLDEAKHAEKYEQEITKLKERLRVSSRRLEEYERRLLVQEQQMQKLLLEYKARLEDSEERLRRQQEEKDSQMKSIISRLMAVEEELKKDHAEMQAVIDAKQKIIDAQEKRIVSLDSANTRLMSALTQVKERYSMQVRNGISPTNPTKLSITENGEFKNSSC
B2: GBP2 (protein, UniProt P32456 1-588, looked up)
Guanylate-binding protein 2: MAPEINLPGPMSLIDNTKGQLVVNPEALKILSAITQPVVVVAIVGLYRTGKSYLMNKLAGKKNGFSLGSTVKSHTKGIWMWCVPHPKKPEHTLVLLDTEGLGDIEKGDNENDSWIFALAILLSSTFVYNSMGTINQQAMDQLHYVTELTDRIKANSSPGNNSVDDSADFVSFFPAFVWTLRDFTLELEVDGEPITADDYLELSLKLRKGTDKKSKSFNDPRLCIRKFFPKRKCFVFDWPAPKKYLAHLEQLKEEELNPDFIEQVAEFCSYILSHSNVKTLSGGIPVNGPRLESLVLTYVNAISSGDLPCMENAVLALAQIENSAAVEKAIAHYEQQMGQKVQLPTETLQELLDLHRDSEREAIEVFMKNSFKDVDQMFQRKLGAQLEARRDDFCKQNSKASSDCCMALLQDIFGPLEEDVKQGTFSKPGGYRLFTQKLQELKNKYYQVPRKGIQAKEVLKKYLESKEDVADALLQTDQSLSEKEKAIEVERIKAESAEAAKKMLEEIQKKNEEMMEQKEKSYQEHVKQLTEKMERDRAQLMAEQEKTLALKLQEQERLLKEGFENESKRLQKDIWDIQMRSKSLEPIC
B3: PSMB9 (protein, UniProt P28065 21-219, looked up)
Proteasome subunit beta type-9: TTIMAVEFDGGVVMGSDSRVSAGEAVVNRVFDKLSPLHERIYCALSGSAADAQAVADMAAYQLELHGIELEEPPLVLAAANVVRNISYKYREDLSAHLMVAGWDQREGGQVYGTLGGMLTRQPFAIGGSGSTFIYGYVDAAYKPGMSPEECRRFTTDAIALAMSRDGSSGGVIYLVTITAAGVDHRVILGNELPKFYDE
B4: CCDC21 (protein, UniProt Q6P2H3 1-762, looked up)
Centrosomal protein of 85 kDa: MAMQEKYPTEGISHVTSPSSDVIQKGSSLGTEWQTPVISEPFRSRFSRCSSVADSGDTAIGTSCSDIAEDFCSSSGSPPFQPIKSHVTIPTAHVMPSTLGTSPAKPNSTPVGPSSSKLPLSGLAESVGMTRNGDLGAMKHSPGLSRDLMYFSGATGENGIEQSWFPAVGHERQEEARKFDIPSMESTLNQSAMMETLYSDPHHRVRFHNPRTSTSKELYRVLPEAKKAPGSGAVFERNGPHSNSSGVLPLGLQPAPGLSKPLPSQVWQPSPDTWHPREQSCELSTCRQQLELIRLQMEQMQLQNGAICHHPAAFGPSLPILEPAQWISILNSNEHLLKEKELLIDKQRKHISQLEQKVRESELQVHSALLGRPAPFGDVCLLRLQELQRENTFLRAQFAQKTEALSREKIDLEKKLSASEVEVQLIRESLKVALQKHSEEVKKQEERVKGRDKHINNLKKKCQKESEQNREKQQRIETLERYLADLPTLEDHQKQSQQLKDSELKSTELQEKVTELESLLEETQAICREKEIQLESLRQREAEFSSAGHSLQDKQSVEETSGEGPEVEMESWQKRYDSLQKIVEKQQQKMDQLRSQVQSLEQEVAQEEGTSQALREEAQRRDSALQQLRTAVKELSVQNQDLIEKNLTLQEHLRQAQPGSPPSPDTAQLALELHQELASCLQDLQAVCSIVTQRAQGHDPNLSLLLGIHSAQHPETQLDLQKPDVIKRKLEEVQQLRRDIEDLRTTMSDRYAQDMGENCVTQ
B5: NAP1L2 (protein, UniProt Q9ULW6 1-460, looked up)
Nucleosome assembly protein …: MAESENRKELSESSQEEAGNQIMVEGLGEHLERGEDAAAGLGDDGKCGEEAAAGLGEEGENGEDTAAGSGEDGKKGGDTDEDSEADRPKGLIGYVLDTDFVESLPVKVKYRVLALKKLQTRAANLESKFLREFHDIERKFAEMYQPLLEKRRQIINAIYEPTEEECEYKSDSEDCDDEEMCHEEMYGNEEGMVHEYVDEDDGYEDYYYDYAVEEEEEEEEEDDIEATGEENKEEEDPKGIPDFWLTVLKNVDTLTPLIKKYDEPILKLLTDIKVKLSDPGEPLSFTLEFHFKPNEYFKNELLTKTYVLKSKLAYYDPHPYRGTAIEYSTGCEIDWNEGKNVTLKTIKKKQKHRIWGTIRTVTEDFPKDSFFNFFSPHGITSNGRDGNDDFLLGHNLRTYIIPRSVLFFSGDALESQQEGVVREVNDAIYDKIIYDNWMAAIEEVKACCKNLEALVEDIDR
B6: VPS52 (protein, UniProt Q8N1B4 2-723, looked up)
Vacuolar protein …: AAAATMAAAARELVLRAGTSDMEEEEGPLAGGPGLQEPLQLGELDITSDEFILDEVDVHIQANLEDELVKEALKTGVDLRHYSKQVELELQQIEQKSIRDYIQESENIASLHNQITACDAVLERMEQMLGAFQSDLSSISSEIRTLQEQSGAMNIRLRNRQAVRGKLGELVDGLVVPSALVTAILEAPVTEPRFLEQLQELDAKAAAVREQEARGTAACADVRGVLDRLRVKAVTKIREFILQKIYSFRKPMTNYQIPQTALLKYRFFYQFLLGNERATAKEIRDEYVETLSKIYLSYYRSYLGRLMKVQYEEVAEKDDLMGVEDTAKKGFFSKPSLRSRNTIFTLGTRGSVISPTELEAPILVPHTAQRGEQRYPFEALFRSQHYALLDNSCREYLFICEFFVVSGPAAHDLFHAVMGRTLSMTLKHLDSYLADCYDAIAVFLCIHIVLRFRNIAAKRDVPALDRYWEQVLALLWPRFELILEMNVQSVRSTDPQRLGGLDTRPHYITRRYAEFSSALVSINQTIPNERTMQLLGQLQVEVENFVLRVAAEFSSRKEQLVFLINNYDMMLGVLMERAADDSKEVESFQQLLNARTQEFIEELLSPPFGGLVAFVKEAEALIERGQAERLRGEEARVTQLIRGFGSSWKSSVESLSQDVMRSFTNFRNGTSIIQGALTQLIQLYHRFHRVLSQPQLRALPARAELINIHHLMVELKKHKPNF

The first assay concerns the target T1, HCV ORFs (Gal4-DB fusions) (Hepatitis C virus genotype 1b, UniProt Q9WMX2).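 Also: yeast two-hybrid screens using HCV genotype 1b proteins fused to Gal4-DB as baits against prey cDNA libraries from human spleen and foetal brain, IMAP1 via transformation and IMAP2 via mating.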
T1 construct: expressed in transfected cells; host or cells: Saccharomyces cerevisiae MAV203 (IMAP1) / AH109 (IMAP2)
Experiment: not given
The assay is classed as binding, HCV genotype 1b, isolate con1. The conditions noted are these: HCV protein NS3 as bait; human protein as prey.
Regarding B1, the “IMAP Y2H IMAP2 (number of IST)” value came out at 3.
Same read-out and setting: next, B2: 26.
The same measure, in the same setting: next, B3: 1; B4: 2.

Still in this assay, the particulars now being: HCV protein NS5A as bait; human protein as prey.
For the molecule B5, the “IMAP Y2H IMAP2 (number of IST)” value is 4.
Same read-out and setting: next, B3: 38; B6: 2.

The assay is the same for the next values; noted with them: HCV protein NS5B as bait; human protein as prey.
In the case of B3, the “IMAP Y2H IMAP2 (number of IST)” value is on record as 14.

Another assay relates to HCV ORFs (Gal4-DB fusions).
Experiment: not given
The conditions noted are these: human protein listed by gene symbol; the value names the HCV protein it interacts with. The class given is binding, HCV genotype 1b, isolate con1.
Consider B1, for which the “Interaction with viral protein” value is given as “NS3”.
On the same count and under the same terms, next, B2: “NS3”; B3: “NS3 and NS5A”; B4: “NS3”.

The next assay has as its target T2, GST-tagged viral proteins (Hepatitis C virus genotype 1b, UniProt Q9WMX2).
T2 construct: expressed in transfected cells; host or cells: HEK-293T
The assay is described as follows: Validation by co-affinity purification (CoAP). The conditions noted are these: interaction with HCV protein NS5A. Also noted: key: +: IMAP validation; −: not validated; NA: non assayable due to default of protein expression or to cellular protein directly interacting with GST. The assay is classed as binding, HCV genotype 1b, isolate con1. The text has this:
C. Validation of Y2H interactions by co-affinity purification assay. Nine co-AP positive assays are shown, representing: NS5A-SORBS2 (1), NS3-CALCOCO2 (2), NS5A-BIN1 (3), NS5A-MOBK1B (4), NS5A-EFEMP1 (5), NS3-PSMB9 and NS5A-PSMB9 (6), NS5A-PPPIRI3L (7), NS3-RASAL2 (8). After pull-down with GST tagged viral baits (+) or with negative control GST alone (−), cellular preys are identified with anti-Flag antibody. Anti-GST antibody identifies either GST alone or GST-tagged viral baits. Expression of cellular preys in cell lysate is controlled by anti-Flag (bottom panel). […]
A random pool of 59 IMAP Y2H interactions was chosen for CoAP assays. Cellular ORFs (interacting domains found in Y2H screens) were cloned by recombinational cloning from a pool of human cDNA library or the MGC cDNA plasmids using KOD polymerase (Toyobo) into pDONR207 (Invitrogen). After validation by sequencing, these ORFs were transferred to pCi-neo-3xFLAG gateway-converted, and HCV ORFs were transferred into pDEST27 (GST fusion in N-term). HEK-293T cells were then co-transfected (JetPei, Polyplus) by each pair of plasmid encoding interacting proteins. Controls are GST alone against 3xFLAG-tagged preys. Two days after transfection, cells were harvested and lysed (0.5% NP-40, 20 mM Tris-HCl (pH 8.0), 180 mM NaCl, 1 mM EDTA, and complete protease inhibitor cocktail). Cell lysates were cleared by centrifugation for 20 min at 13,000 rpm at 4° C. and soluble protein complexes were purified using Glutathione Sepharose 4B beads (GE Healthcare). Beads were then washed extensively four times with lysis buffer and proteins were separated on SDS-PAGE and transferred to nitrocellulose membrane. GST-tagged viral proteins and 3xFLAG-tagged cellular proteins were detected using standard immunoblotting techniques using anti-GST (Covance) and anti-FLAG M2 (Sigma) monoclonal antibodies (21).
B5: the CoAP entry was “+”.
Still for that read-out and setting: next, B3: “+”.
Same read-out and setting: next, B6: “+”.

The assay is the same for the next values; noted with them: validation of interaction with HCV protein NS3.
On to B1, for which the CoAP entry is “+”.
Same read-out and setting: next, B2: “+”.
In the case of B3, the CoAP entry is reported as “+”.
Same read-out and setting: next, B4: “+”.

The record behind these values is patent US20110091994A1, “Methods for Screening Compounds for Treating and/or Preventing an Hepatitis C Virus Infection” (priority 2008, published 2011).
